Drawing on patent publication US20240409983A1 (published 2024), this text covers Kd for one molecule.

The target in one assay is 401-01R_6162-C57-1. Briefly: NGS-count immunoassay, capture antibody titration, single-site binding fit; average Kd; antibody pair.
In another assay the target is 6162-B78-8_MAM02-008. Briefly: NGS-count immunoassay, capture antibody titration; average Kd; antibody pair.
Another assay addresses 6162-H85-2t_6162-F78-2. Described as above.

A word on the Kd: it is a measure of binding affinity in units of concentration.

B1: Analyte (other)
chain: KLTIESTPFNVAEGKEVLLLVHNLPQHLFGYSWYKGERVDGNRQIIGYVIGTQQATPGPAYSGREIIYPNASLLIQNIIQNDTGFYTLHVIKSDLVNEEATGQFRVYPELPKPSISSNNSKPVEDKDAVAFTCEPETQDATYLWWVNNQSLPVSPRLQLSNGNRTLTLFNVTRNDTASYKCETQNPVSARRSDSVILNVLYGPDAPTISPLNTSYRSGENLNLSCHAASNPPAQYSWFVNGTFQQSTQELFIPNITVNNSGSYTCQAHNSDTGLNRTTVTTITVYAEPPKPFITSNNSNPVEDEDAVALTCEPEIQNTTYLWWVNNQSLPVSPRLQLSNDNRTLTLLSVTRNDVGPYECGIQNELSVDHSDPVILNVLYGPDDPTISPSYTYYRPGVNLSLSCHAASNPPAQYSWLIDGNIQQHTQELFISNITEKNSGLYTCQANNSASGHSRTTVKTITVSAELPKPSISSNNSKPVEDKDAVAFTCEPEAQNTTYLWWVNGQSLPVSPRLQLSNGNRTLTLFNVTRNDARAYVCGIQNSVSANRSDPVTLDVLYGPDTPIISPPDSSYLSGANLNLSCHSASNPSPQYSWRINGIPQQHTQVLFIAKITPNNNGTYACFVSNLATGRNNSIVKSITVSASGTSPGLSA
On to B1, for which the dissociation constant (Kd) turned out to be 0.906 nM with 401-01R_6162-C57-1, 1.94 nM with 6162-B78-8_MAM02-008 and 0.352 nM with 6162-H85-2t_6162-F78-2.
